Laboratory results published in the supplement of paper PMC12042874.
± gives the uncertainty stated by the source.

Experiment: amyloid nucleation score (Sup35N fusion, yeast selection) (log enrichment); library NNK3; higher = more nucleation; inactive = no reads after selection
How it was run: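 The nucleation score equals the log enrichment of output over input reads from DiMSum, centred on the mode score of non-aggregating sequences. It was computed only for sequences with 100 or more input reads. The reads came from Illumina sequencing of plasmid inserts from psi-negative yeast expressing Sup35N fused to peptides of 20 random codons, induced with 100 μM copper sulfate for 24 hours and grown 7 days at 30°C without adenine and uracil.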

Row | Substance | amyloid nucleation score
1 | AAISVFCEVFK | inactive
2 | AAVHWSTIYYSLGMVKDEGG | inactive
3 | ACCIAGL | inactive
4 | ACCQTDRFRFEVALVGFVVG | inactive
5 | ACFEAICGYSTLSQ | inactive
6 | ACLIRPRFYPVNHNSVVASL | inactive
7 | ACMNSSSRSVMLLMCYYFSN | inactive
8 | ACSRGKCFTNRGSRWHLFVC | inactive
9 | ACYNSKRMGGMYNSRVLDHD | inactive
10 | ADCPCYVTGCWLSYWMLYI | inactive
11 | ADCPPRYRLPWGELGLRGEI | inactive
12 | ADMGGSVGHVSNKSVSSNLL | inactive
13 | ADVGGD | inactive
14 | ADVLFKFNSDMRRS | inactive
15 | ADVLTNRIGPCIKEGIKLGI | inactive
16 | AEARTPIECVC | inactive
17 | AEFYERLPFDIPLHSYFNAW | inactive
18 | AEVPEFTLYVSFYSWVYFRL | inactive
19 | AEWLSCLRWIGK | inactive
20 | AFCRNRTNVCMICYLRSG | 0.907 ± 0.17
21 | AFFGCCYGRDLVEHW | 1.49 ± 0.1
22 | AFFVVTIFVVNTSCDNVLVS | 1.03 ± 0.11
23 | AFSISVLM | inactive

Row | Substance | amyloid nucleation score
24 | AGCIGFNVFEH | inactive
25 | AGGSLWKAL | inactive
26 | AGIVRWVVFISSYWGPLLLL | inactive
27 | AGNIACVLSLCTYNARYRTR | 3.19 ± 0.068
28 | AGTKSLRNYGWCLYDGGFYH | inactive
29 | AHEQTQSDLPGVELPRWDR | inactive
30 | AHREFLFRMTVWNITKGLIL | -0.481 ± 0.9
31 | AHRQMGNFR | -0.701 ± 1.2
32 | AHVKLNDVFSWI | inactive
33 | AHVSLVSLRKRLPYFGFASV | inactive
34 | AIGDVTVGRIHFDMHCGLGR | -0.955 ± 1.2
35 | AILLNWNCVNFPCFEIYPYL | 1.7 ± 0.063
36 | AILSTLVNTVNRELRQGRLM | inactive
37 | AIRGVARLRVMDRVSALPLR | inactive
38 | AITHRIDS | inactive
39 | AITYTTSLKVSFVSKGVSGA | 0.614 ± 0.32
40 | AIYRIWCYGA | -0.088 ± 0.9
41 | AKFSQVLLLQWGSSPDIDRE | 1.11 ± 0.18
42 | AKWCVF | -0.714 ± 2.4
43 | ALCRASEVIWWARVSGGCVL | inactive
44 | ALFSFDNSNYMVSNGAIGRV | -0.167 ± 0.75
45 | ALFSKYIYITFNYYFMQKWL | 2.54 ± 0.054
46 | ALSGSGLRLTPMKQ | inactive

Row | Substance | amyloid nucleation score
47 | ALSPHSNCIYNCLSCCCDTD | 0.655 ± 0.15
48 | AMDRTNNIEDEQWIMNKYWV | inactive
49 | AMMVRCFRDPKHEK | inactive
50 | AMNFYI | inactive
51 | AMQIYTLVMGSPRDFDYWKV | 1.14 ± 0.11
52 | AMSTDLLSVACL | inactive
53 | ANECDGVYNGAKCSRWNFLL | inactive
54 | ANICVFFSLDWFCPLFLSHK | 2.34 ± 0.079
55 | ANMCNCKAIHRFNKFNICSR | inactive
56 | APLYTANAMHSRCILSWVFL | 2.25 ± 0.082
57 | APRFRFQTVHRSFVRSRKLR | inactive
58 | AQFVWMKLHICRTDLGESH | inactive
59 | ARDCGRFIFLWWRYSLTKRH | inactive
60 | ARICIAACIRAICDGFSGRR | inactive
61 | ARISEFTESWNRRCYTLRYC | inactive
62 | ARKMTIRPPLFPAWHSFELK | inactive
63 | ARSDGLF | inactive
64 | ARSDHYYAVIGDVRMNILPI | inactive
65 | ARTIELMECNISVNSIVWQG | 1.98 ± 0.089
66 | ARVVVG | inactive
67 | ARWGDSLSRDLTSGYLFGVG | inactive
68 | ASCSVVEKISFTDPGIQWIR | -0.032 ± 1.1
69 | ASDSDTCCGFVRGAVYWRLT | -0.117 ± 0.84

Row | Substance | amyloid nucleation score
70 | ASFFNILNPISIVVILKRFC | inactive
71 | ASGSHSVT | inactive
72 | ASHHVDSTYDTYYWQHKAKK | inactive
73 | ASKENCLIVFIVYQSIIETC | inactive
74 | ASLRYYGMAVVSSVYKMVVV | inactive
75 | ASMYIMFTTVNKILFIEISD | 1.69 ± 0.056
76 | ASNCDPMIHFLMHKVYKSFY | -0.103 ± 0.64
77 | ASPYTGDWDTVMC | inactive
78 | ASRSDCTRYIMTTMIWWHFP | inactive
79 | ASSPLITRDDKAHGLEFHSY | inactive
80 | ASVPAN | inactive
81 | ASVRSGYDMVGFGILFGQMS | inactive
82 | ASWFYNIKKLNCCHFVQFAD | 1.64 ± 0.09
83 | ASWPNYYWSNSLILFRDKCV | 0.019 ± 0.3
84 | ASYEDFWDNLA | -0.239 ± 1.4
85 | ASYLCVFCDRAFQCGPYRYI | 2.22 ± 0.092
86 | ASYYF | inactive
87 | ATFIFSDRQSHIHLYSNTQY | inactive
88 | ATIYICGLNPNRVAACIVLE | inactive
89 | ATLRAFATVYFHLVTHMFNF | inactive
90 | ATPKPKGHY | inactive
91 | ATSTTSLRVNLDHCAETFQN | 0.238 ± 0.44
92 | ATTADLDRCSLFPKLRILRG | inactive

Row | Substance | amyloid nucleation score
93 | ATTGR | inactive
94 | AVCEMKIHCYITVPDPSRPR | inactive
95 | AVECSDRTTARWLNVTYAYF | inactive
96 | AVENSQFW | 0.204 ± 0.38
97 | AVFSKGISCGLH | -0.434 ± 1.1
98 | AVFTCCCPRK | inactive
99 | AVIIDIHGINPMG | inactive
100 | AVIVVINNQTH | 2.78 ± 0.077
101 | AVQQKSECFLFAFLILRDWV | inactive
102 | AVRCPLNMHLRGRAVVQYKG | inactive
103 | AVSFLWHTYVLGGLLKLFGG | inactive
104 | AVSLCSDLYFVFGKWFGCEL | 1.11 ± 0.11
105 | AVTYENRSNLIVKVLVI | -0.363 ± 0.27
106 | AVWRYSVSYTLYHSSGLLES | inactive
107 | AVYLGGGHKSCRRSRRWLVS | inactive
108 | AWASIDVSNAL | inactive
109 | AWTGGSLGLTNI | inactive
110 | AWVDLVLRGFKGYLTYRSLH | inactive
111 | AWVPMFFSLHMWHCNALNFC | inactive
112 | AWWMLN | inactive
113 | AYAQSYND | inactive
114 | AYELHKTPNGPSPSESLALI | inactive
115 | AYLGLLNSAKFFKYLRSYAW | inactive

Row | Substance | amyloid nucleation score
116 | AYLYNFLWDTGSVIWVVGHL | inactive
117 | AYMRHFF | inactive
118 | AYMVTKLVKR | inactive
119 | AYSSWALMLGHTMCIYGGFR | 1.55 ± 0.13
120 | AYSVSRSALRSEANRIGSR | inactive
121 | AYSVYVFALYRLNFYVLLRN | inactive
122 | AYSYAYGHCRYGSEVS | inactive
123 | AYWRREKMCSVPGGSWSGWV | inactive
124 | CAAIRGKL | inactive
125 | CAHKSGQACKHGVF | 0.533 ± 0.4
126 | CAKMHTCVYSFCTMEWSLTR | inactive
127 | CALHRAGRTLVCFIYIFSGM | inactive
128 | CAPLSVVWNSRGFM | inactive
129 | CASCEVFMLR | inactive
130 | CASTDKNPFLPVNAAITYGL | inactive
131 | CCRLHRGISVNPILQSYGIM | inactive
132 | CCSMARAITISGNVELKFD | inactive
133 | CDHCRDKCMANRMSSRSLRW | inactive
134 | CDLWIHWS | inactive
135 | CDSRSCFKVYASLAARSDQR | 2.12 ± 0.074
136 | CDVFVSY | inactive
137 | CEKDRMNLWLTRDG | inactive
138 | CELGDSGVIDDKIICVCYYL | inactive

Row | Substance | amyloid nucleation score
139 | CEMGFLEPL | inactive
140 | CEMLMGRVIFWSPQPQLWNY | inactive
141 | CENIVGMPDRRISSVAGPDG | 0.486 ± 0.33
142 | CESPLERSSAKYCRWGSCWG | inactive
143 | CEYCFGMTSLTAWWCYVLRC | inactive
144 | CEYLGPVYIM | inactive
145 | CFASWN | inactive
146 | CFCLSRL | inactive
147 | CFDTSLSVPGPMCYWKTKHG | inactive
148 | CFELDVRDEA | inactive
149 | CFIWMSYGVPLNCNCLPQRP | inactive
150 | CFLSQLNTSDACVCLRFGWG | inactive
151 | CFNYRLDFTQNWYMLIQCCH | 0.867 ± 0.24
152 | CFSAASTVKNMIEGCCRGMY | inactive
153 | CFSDGPLRVHSIGQRWLRCR | inactive
154 | CFSFYVGCGRMQEPPRLGAG | 0.785 ± 0.18
155 | CFTNNSIHVYSLWIKTRHFF | 0.239 ± 0.58
156 | CFYSNQASQVLLLYHP | 0.771 ± 0.2
157 | CGSVNVSTRYKD | inactive
158 | CGTFNCYNGAL | 0.699 ± 0.19
159 | CGWIFNLYSRRIQALEGRAS | inactive
160 | CHDLLHVVIEIPVCFLCTKG | 0.807 ± 0.18
